# Measurements taken from publication PMC8632718, “Novel Assay Platform to Evaluate Intracellular Killing of Mycobacterium tuberculosis: In Vitro and In Vivo Validation” (Frontiers in Immunology, 2021).
# Numbered stars: 1 amine (or outer) side, 2 acyl side, 3 side chain; on linkers, the order of the positions; unused ones are H or OH. Square brackets hold non-standard residues; d marks the D form. Peptide text beside a SMILES is read from it. * marks the point of attachment. Hydrazinoacetyl = O=C(CNN[*:1])[*:2]; Isonicotinoyl = O=C(c1ccncc1)*
# Key:
# [1] = type: in vitro ADME; settings: rat liver lysosomal homogenate, 37 °C, LC-MS
# Method: Next, we examined the enzymatic stability of two peptide conjugates in rat liver lysosomal homogenate (see Supplementary Information 2 for the method description). Peptides were dissolved at 0.025 µg/µl concentration then allowed to react with the lysosomal homogenate. Degradation of the conjugates was fast. […]
# 1.2 Lysosomal degradation studies
# Enzymatic stability of INH-Dhvar4 and INH-Penetratin conjugates were assayed in rat liver lysosomal homogenate (protein content was 16.6 µg/µl). Peptides were dissolved in 0.2 M Sodium acetate buffer (pH=5.03) at 0.025 µg/µl concentration and added to the lysosomal homogenate to reach 1 : 1 protein / peptide ratio (37 °C, 600 rpm vortex) . At different time points (5 min, 30 min, 1 h, 6 h, 24 h) the reaction was stopped by the addition of 5 µl formic acid. Sampled were then measured by LC-MS using a Thermo Scientific Q Exactive Focus Hybrid Quadrupole -Orbitrap Mass Spectrometer (Suppl. Figu re 1). For chromatography, a Wa ters Acquity UPLC BEH C18 (1.7 µ, 150 × 2.1 mm) column was used with a flow rate of 300 µL/min applying a gradient elution from 2% to […]
# (1 picture or pasted object on this page, not shown here)
# EBC-1 cells = type: cell-based, human; settings: 10 µM, 3 hrs, fixed, 30 profiles
# Method: In addition to the internalization experiments, the surface morphology of INH-peptide-treated and fixed EBC-1 cells was also studied with atomic force microscopy (AFM) ( Supplementary Information 1.3 ). High-resolution imaging of the cell surfaces was performed with a Flex-Axiom AFM system (Nanosurf, Liestal, Switzerland).The representative images and surface roughness of the native and treated cells are shown in Supplementary Figure S2 .
# 1.3 Membrane integrity evaluation by atomic force microscopy (AFM) […]
# High resolution imaging of the surfaces were performed with a Flex-Axiom AFM system (Nanosurf, Liestal, Switzerland) operating in dynamic mode utilizing soft-tapping cantilevers (Tap150-G, BudgetSensors) with nominal force constant of 5 N/m. The recorded images were evaluated with the Gwyddion software. […]
# Two cut-off frequencies were chosen with real-space wavelengths of 1 μm and 200 nm. […] Figure 2D,E,F. Scale dependent surface roughness of the cells was determined according to Antonio et al. Mean Rq values are somewhat higher in the peptide and conjugate treated cells, but […]
# Supplementary Figure 2. […] The apex area of the cells was selected for imaging with a scan area of 5 μm × 5 μm (512 × 512 pixel resolution), where the cellular curvature has the smallest distortion effect on the recorded height profiles. […]
# 1.4. […] To quantify […]
# MonoMac-6 cells = settings: 50 µM
compound,measurement,setting,value
CC(C)C[C@H](NC(=O)[C@H](CCCNC(=N)N)NC(=O)[C@H](CCCCN)NC(=O)CNNC(=O)c1ccncc1)C(=O)N[C@@H](Cc1ccccc1)C(=O)N[C@@H](CCCCN)C(=O)N[C@@H](CCCCN)C(=O)N[C@@H](CC(C)C)C(=O)N[C@@H](CC(C)C)C(=O)N[C@@H](Cc1ccccc1)C(=O)N[C@@H](CO)C(=O)N[C@@H](CC(C)C)C(=O)N[C@@H](CCCNC(=N)N)C(=O)N[C@@H](CCCCN)C(=O)N[C@@H](Cc1ccc(O)cc1)C(N)=O [INH-Dhvar4] (Isonicotinoyl-[Hydrazinoacetyl]KRLFKKLLFSLRKY-NH2),peaks of the intact conjugates after 30 min of incubation,"[1]; 0.2 M sodium acetate buffer pH 5.03, 0.025 µg/µl, 1:1 protein/peptide ratio",almost disappeared
same,most stable fragment (main peak after 24 h of incubation),"[1]; pH 5.03, 0.025 µg/µl",tripeptide (KRL) covalently attached to INH
same,membrane integrity (AFM surface roughness Rq),EBC-1 cells,membrane integrity maintained
same,viability of MonoMac-6 cells,MonoMac-6 cells,> 80%
